# Where two headings read alike, the source gives them in different places.
# How the values were obtained:
# Assay in all cases: cell-based or functional assay
# [1] = molecular target: human CD73 on cells (H322, MDA-MB-231, HT-144, T cells, CD73-transfected HEK293T) (human) (UniProt P21589)
# [2] = molecular target: human CD73 on cells (H322, MDA-MB-231, HT-144, T cells, CD73-transfected HEK293T) (human) (UniProt P21589); remark: listed apart in the source
# [3] = molecular target: human CD73 on cells (H322, MDA-MB-231, HT-144, T cells, CD73-transfected HEK293T) (human) (UniProt P21589); remark: listed apart in the source
# Chain of human CD73 on cells (H322, MDA-MB-231, HT-144, T cells, CD73-transfected HEK293T) (human) (P21589 27-549): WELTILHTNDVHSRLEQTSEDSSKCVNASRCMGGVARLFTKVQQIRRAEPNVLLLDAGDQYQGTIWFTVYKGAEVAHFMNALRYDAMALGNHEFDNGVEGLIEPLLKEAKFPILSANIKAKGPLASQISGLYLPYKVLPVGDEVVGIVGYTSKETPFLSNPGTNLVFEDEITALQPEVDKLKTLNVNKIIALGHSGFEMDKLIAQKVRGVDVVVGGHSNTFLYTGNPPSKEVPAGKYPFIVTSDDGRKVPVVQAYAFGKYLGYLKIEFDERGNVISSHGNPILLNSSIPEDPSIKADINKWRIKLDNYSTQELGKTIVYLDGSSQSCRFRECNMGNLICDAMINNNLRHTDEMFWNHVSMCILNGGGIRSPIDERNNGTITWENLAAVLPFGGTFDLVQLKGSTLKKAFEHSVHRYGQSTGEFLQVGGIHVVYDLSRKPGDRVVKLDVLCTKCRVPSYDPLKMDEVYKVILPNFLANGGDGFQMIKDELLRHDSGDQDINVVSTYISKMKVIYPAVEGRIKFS
substance,measurement,setting,value
Benchmark antibody (antibody having the same sequences as the published variable regions of MEDI9447),IC50 of AMP degradation suppressive function (cell line of Table 7 not stated; H322 in FIG. 12),[1],0.007 µg/mL
same,"IC50 of AMP degradation suppressive function, H322 cells",[1],0.091 µg/mL
same,"IC50 of AMP degradation suppressive function, MDA-MB-231 cells",[1],0.111 µg/mL
same,"IC50 of AMP degradation suppressive function, H322 cells",[2],0.02 µg/mL
same,"IC50 of AMP degradation suppressive function, H322 cells",[3],0.04 µg/mL

# Source: patent US20230220104A1
